Measurements: paper PMC9910460 (Proceedings of the National Academy of Sciences of the …, 2022)

Biological target: TF-Mec1 1–500aa (Saccharomyces cerevisiae, UniProt P38111 1-500)
Experiment: pull-down

TF-Mec1 1–500aa, sequence (P38111 1-500): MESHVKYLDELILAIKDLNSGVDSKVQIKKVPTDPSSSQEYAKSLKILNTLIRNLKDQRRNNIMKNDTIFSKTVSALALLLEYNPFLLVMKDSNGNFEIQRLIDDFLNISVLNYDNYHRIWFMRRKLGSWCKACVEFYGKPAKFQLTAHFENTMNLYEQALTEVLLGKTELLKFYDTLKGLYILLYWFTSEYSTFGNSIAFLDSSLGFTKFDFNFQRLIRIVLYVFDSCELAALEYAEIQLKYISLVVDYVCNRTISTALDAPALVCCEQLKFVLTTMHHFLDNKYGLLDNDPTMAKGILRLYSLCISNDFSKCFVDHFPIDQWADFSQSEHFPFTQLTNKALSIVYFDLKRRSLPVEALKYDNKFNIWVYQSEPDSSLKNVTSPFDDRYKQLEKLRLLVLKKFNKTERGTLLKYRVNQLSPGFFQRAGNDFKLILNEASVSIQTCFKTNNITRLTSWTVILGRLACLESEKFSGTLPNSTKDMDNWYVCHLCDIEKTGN

B1: GST–Atg13 460–640aa (domain or fragment, Saccharomyces cerevisiae, UniProt Q06628 460-640, looked up)
chain: ESQEDLMDFVKLLEEKPDLTIKKTSGNNPPNINISDSLIRYQNLKPSNDLLSEDLSVSLSMDPNHTYHRGRSDSHSPLPSISPSMHYGSLNSRMSQGANASHLIARGGGNSSTSALNSRRNSLDKSSNKQGMSGLPPIFGGESTSYHHDNKIQKYNQLGVEEDDDDENDRLLNQMGNSATK
  binding result: binds
